Patent US9480726B2, “Leukotoxin E/D as a new anti-inflammatory agent and microbicide” (New York University, priority 2011, dated 2016)

Experiments:
CCR5^+ Jurkat cells [1] = assay: Blocking of LukE/D cytotoxicity by CCR5 antagonists, antibodies and ligands, CellTiter; type: cell-based, human; conditions: CCR5^+ Jurkat preincubated 30 minutes, then LukE/D, read 1 hour post-intoxication
Protocol: One hour post-intoxication, the viability of the cells was determined by CellTiter. […] One hour post-intoxication, the viability of the cells was determined by CellTiter. Results represent the average of triplicate samples±S.D.
To determine if targeting CCR5 blocks LukE/D, the effect of several CCR5 antagonist and ligands on the ability of LukE/D to kill CCR5^+ cells was evaluated. […] In addition, the potential of monoclonal antibodies directed against CCR5 to protect cells from LukE/D cytotoxicity was also evaluated following the experimental protocol described for the CCR5 antagonist. […] Lastly, the potential inhibitory effect of natural ligands of CCR5 was also evaluated. […] Collectively, these findings indicate that the potent cytotoxic activity of LukE/D could be blocked by employing CCR5 antagonist and/or ligands.

[2] = tested on: primary human macrophages; assay: LukE/D cytotoxicity towards primary phagocytes, percent death by flow cytometry; conditions: 1 hour post-intoxication
Protocol: (§1) Cells were then stained with an anti-CCR5 antibody and a viability dye prior analysis by flow cytometry. […] One hour post-intoxication, the percent death was determined by flow cytometry.
(§2) In addition to T lymphocytes, the cytotoxic activity of LukE/D towards primary human macrophages and dendritic cells was also evaluated.

[3] = tested on: primary human dendritic cells; assay: as above; conditions: 1 hour post-intoxication
Protocol: as §1, §2

[4] = tested on: parental CCR5^− Jurkat cells; assay: Binding of GFP-fused LukE/D toxin to plasma membrane, flow cytometry; parameters: species or system human
Protocol: (§6) To elucidate the mechanism by which LukE/D utilizes CCR5 to target and kill host cells, Jurkat (CCR5^−) and CCR5^+ Jurkat (CCR5^+) cells were incubated with a GFP-fused LukE/D toxin (^GFPLukE/D) and binding of the fluorescent toxin to the plasma membrane of the cells monitored by flow cytometry.

Jurkat cells = assay: LukE/D cytotoxicity, cell viability by CellTiter; type: cell-based, human; conditions: 1 hour post-intoxication
Protocol: (§3) Cytotoxicity was determined by a cell viability assay where indicated human immune cells lines were intoxicated with different concentrations of an equimolar mixture of LukE+LukD (LukE/D). Cell viability was monitored 1 hour post-intoxication using CellTiter, where cells treated with medium were set at 100% viable. Results represent the average of triplicate samples±S.D. FIG. 2B depicts that LukE/D kills Hut cell but not other human T lymphocyte-like cell lines. Indicated cell lines were intoxicated with different concentrations of an equimolar mixture of LukE+LukD (LukE/D) and cell viability monitored as in FIG. 2A. Results represent the average of triplicate samples±S.D.
(§4) One mechanism by which LukE/D could be blocked is by inhibiting the interaction of the toxin with its receptor. As an initial strategy to understand how LukE/D interact with host cells, a collection of human immune cell lines were incubated (“intoxicated”) with different concentrations of either individual subunits (i.e., LukE or LukD) or an equimolar mixture of LukE+LukD (LukE/D). […] Upon further investigation, it was discovered that the Hut cells employed the experiments described above have been engineered to over-express the CC-chemokine receptor 5 (CCR5), a receptor for the chemokines MIP-1α, MIP-1β, and RANTES.

H9 = assay: LukE/D cytotoxicity, cell viability by CellTiter; type: cell-based, human; conditions: H9 lymphocyte cell line
Protocol: as §3, §4

[5] = tested on: Hut cells (T lymphocyte-like cells); assay: LukE/D cytotoxicity, cell viability by CellTiter; type: cell-based, human; conditions: Hut cells (over-express CCR5), 1 hour post-intoxication
Protocol: as §3, §4

PM1 = assay: LukE/D cytotoxicity, cell viability by CellTiter; type: cell-based, human; conditions: PM1 lymphocyte cell line
Protocol: as §3, §4

[6] = tested on: Primary human T lymphocytes from CCR5^+ donor; assay: LukE/D intoxication of primary T lymphocytes, viability by flow cytometry; type: cell-based; conditions: 5.4% in media treated cells
Protocol: as §1
(§5) If CCR5 is the receptor of LukE/D, then primary host cells that their surfaces are decorated with CCR5 (e.g., T lymphocytes, macrophages, natural killer cells, dendritic cells, etc.) will be susceptible to LukE/D mediated cell death. To investigate this in more detail, primary human peripheral blood mononuclear cells (PBMC) were isolated from a wild type CCR5 (CCR5^+) donor and a Δ32CCR5 (CCR5^−) donor and the T lymphocytes expanded followed by intoxication with LukE/D and the viability of the cells determined by flow cytometry.

[7] = tested on: THP1 cells (human monocytes); assay: LukE/D cytotoxicity, cell viability by CellTiter; type: cell-based; conditions: 1 hour post-intoxication
Protocol: as §3, §4

CCR5^+ Jurkat = assay: LukE/D cytotoxicity towards CCR5-transduced cells, CellTiter; type: cell-based, human; conditions: Jurkat transduced with CCR5 cDNA, 1 hour post-intoxication
From the text: FIG. 3 illustrates that the chemokine receptor CCR5 is necessary and sufficient to renders mammalian cells susceptible to LukE/D mediated cytotoxicity. Parental Jurkat (top, left) and GHOST cells (bottom, left) or these cells transduced with a CCR5 cDNA (Jurkat CCR5^+, top/right; GHOST CCR5^+, bottom/right), were intoxicated with LukE, LukD, or equimolar mixture of LukE+LukD (LukE/D). One hour post-intoxication cell viability was monitored with CellTiter, where cells treated with medium were set at 100% viable. Results represent the average of triplicate samples±S.D.
To directly determine the contribution of CCR5 for the ability of LukE/D to target and kill host cells, CCR5 was introduced into Jurkat cells by viral transduction of the CCR5 cDNA resulting in CCR5^+ Jurkat. Jurkat and CCR5^+ Jurkat cells were subsequently intoxicated with different concentrations of either individual subunits (i.e., LukE or LukD) or equimolar mixtures of LukE+LukD (LukE/D).

CCR5^+ Jurkat cells [8] = assay: LukE/D pore formation, ethidium bromide incorporation and microscopy; type: cell-based, human
Protocol: Binding of the toxin to the plasma membrane of the cells was monitored via flow cytometry. […] Pore formation was measured over-time by monitoring ethidium bromide incorporation. […] Intoxicated cells were monitored by light (top panels) and by fluorescence microscopy to determine ethidium bromide uptake. Representative images are shown.

CCR5^+ Jurkat cells [9] = assay: Binding of GFP-fused LukE/D toxin to plasma membrane, flow cytometry; parameters: species or system human
Protocol: as §6

[10] = tested on: T lymphocytes from the Δ32CCR5 donor; assay: LukE/D intoxication of primary T lymphocytes, viability by flow cytometry; conditions: T lymphocytes of Δ32CCR5 (CCR5^−) donor
Protocol: as §1, §5

Cc1ccc(-c2ccc3c(c2)C=C(C(=O)Nc2ccc(C[N+](C)(C)C4CCOCC4)cc2)CCC3)cc1.[Cl-] [TAK-779]
blocking of LukE/D mediated cytotoxicity (CCR5^+ Jurkat cells [1]): potently blocked

COC[C@@H](c1ccc(C(F)(F)F)cc1)N1CCN(C2(C)CCN(C(=O)c3c(C)ncnc3C)CC2)C[C@@H]1C [Vicriviroc]
blocking of LukE/D mediated cytotoxicity (CCR5^+ Jurkat cells [1]): potently blocked

LukD: S. aureus Leukocidin D protein subunit, SEQ ID NOs: 12-22
cytotoxic activity (killing) [2]: not LukD potently killed | cytotoxic activity (killing) [3]: not LukD potently killed

LukE/D
binding of toxin to plasma membrane [4]: not to the parental CCR5^− Jurkat cells | cytotoxicity (Jurkat cells): not towards Jurkat cells | cytotoxicity (H9): only the Hut cells were susceptible | cytotoxicity [5]: exhibits cytotoxicity | cytotoxicity (PM1): only the Hut cells were susceptible | cytotoxic activity (killing) [2]: potently killed | cytotoxic activity (killing) [3]: potently killed | cell death [6]: 34% | cytotoxicity [7]: exhibits cytotoxicity | LukE/D mediated toxicity (CCR5^+ Jurkat): susceptible | pore formation in plasma membrane (CCR5^+ Jurkat cells [8]; ethidium bromide incorporation over time): forms pores | cell swelling (CCR5^+ Jurkat cells [8]; light and fluorescence microscopy): associated with cell swelling | binding of toxin to plasma membrane (CCR5^+ Jurkat cells [9]; GFP-fused LukE/D, CCR5^+ Jurkat): binds | LukE/D mediated cytotoxicity [10]: highly refractory

Maraviroc [reference compound]
blocking of LukE/D mediated pore formation (CCR5^+ Jurkat cells [8]; pre-incubation with Maraviroc, ethidium bromide incorporation): potently blocked | blocking of LukE/D cell swelling (CCR5^+ Jurkat cells [8]; pre-incubation with Maraviroc, microscopy): fully blocked | inhibition of LukE/D binding to cells (CCR5^+ Jurkat cells [9]; CCR5^+ Jurkat pre-incubated with Maraviroc, then GFP-labeled LukE/D): potently inhibited

RANTES: natural ligand (chemokine) of CCR5
blocking of LukE/D mediated cytotoxicity (CCR5^+ Jurkat cells [1]): potently inhibit

B1: MIP-1β: natural ligand (chemokine) of CCR5 (protein)
chain: APMGSDPPTACCFSYTARKLPRNFVVDYYETSSLCSQPAVVFQTKRSKQVCADPSESWVQEYVYDLELN
blocking of LukE/D mediated cytotoxicity (CCR5^+ Jurkat cells [1]): potently inhibit
